Test results from US20230235075A1 (DYNAMICURE BIOTECHNOLOGY, published 2023).
Numbering of substitutions follows the chain as printed.

T1: Human CD93 on the cell surface (human CD93 expressing CHO cells; HUVEC, U937 and KG1a cells) (human, UniProt Q9NPY3 22-652)
T1 construct: whole, on cells; also called hCD93 CHO cells; CHO-hCD93
T1 sequence (looked up): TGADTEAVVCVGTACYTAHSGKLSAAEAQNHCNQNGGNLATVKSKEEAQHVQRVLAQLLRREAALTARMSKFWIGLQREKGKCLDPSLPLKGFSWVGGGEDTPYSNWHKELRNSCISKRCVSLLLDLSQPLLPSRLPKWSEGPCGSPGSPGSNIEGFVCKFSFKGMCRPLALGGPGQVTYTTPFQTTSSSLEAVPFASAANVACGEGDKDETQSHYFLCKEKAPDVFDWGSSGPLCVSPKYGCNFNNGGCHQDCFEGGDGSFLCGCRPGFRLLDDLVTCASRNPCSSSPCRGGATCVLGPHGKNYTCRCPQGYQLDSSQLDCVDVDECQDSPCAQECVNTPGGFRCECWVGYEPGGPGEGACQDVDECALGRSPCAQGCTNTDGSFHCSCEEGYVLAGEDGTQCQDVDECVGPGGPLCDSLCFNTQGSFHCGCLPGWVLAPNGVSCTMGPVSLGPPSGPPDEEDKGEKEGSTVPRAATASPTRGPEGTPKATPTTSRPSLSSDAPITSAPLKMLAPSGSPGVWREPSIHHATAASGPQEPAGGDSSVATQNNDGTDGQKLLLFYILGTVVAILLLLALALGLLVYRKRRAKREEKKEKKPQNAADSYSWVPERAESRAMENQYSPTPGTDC

T2: Human CD93 recombinant protein (Sino Biological Inc, Catalog #12589-H08H) (human, UniProt Q9NPY3 22-580, biotinylated with EZ-LINK NHS-PEG4 biotin in the Octet assays)
T2 construct: also called hCD93; His-tagged human CD93
T2 sequence (looked up): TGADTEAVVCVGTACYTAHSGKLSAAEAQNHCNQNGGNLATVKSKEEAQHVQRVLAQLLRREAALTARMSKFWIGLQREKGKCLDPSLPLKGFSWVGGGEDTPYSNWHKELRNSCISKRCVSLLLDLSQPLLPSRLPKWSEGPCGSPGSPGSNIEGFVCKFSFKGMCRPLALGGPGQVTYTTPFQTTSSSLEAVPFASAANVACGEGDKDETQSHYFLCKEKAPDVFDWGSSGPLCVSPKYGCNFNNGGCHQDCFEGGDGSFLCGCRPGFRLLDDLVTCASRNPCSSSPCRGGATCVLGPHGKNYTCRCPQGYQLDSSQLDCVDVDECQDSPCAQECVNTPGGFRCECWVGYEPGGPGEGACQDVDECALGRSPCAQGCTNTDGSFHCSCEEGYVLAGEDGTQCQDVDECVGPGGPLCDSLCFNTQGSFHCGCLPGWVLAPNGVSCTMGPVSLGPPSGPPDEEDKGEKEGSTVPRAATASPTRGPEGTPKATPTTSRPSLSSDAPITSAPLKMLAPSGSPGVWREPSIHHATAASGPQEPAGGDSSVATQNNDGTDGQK

B1: Humanized 17B10 H1L1 (antibody, mouse IgG1, V domains shown)
VH: QVQLVQSGAEVKKPGSSVKVSCKASGYAFSSYWLNWVRQAPGQGLEWFGRIYPGDGDTDYNGKFKGRVTLTADKSTSTAYMELSSLRSEDTAVYFCVRGDGYWAMDYWGQGTTVTVSS
VL: DIVMTQSPLSLPVTPGEPASISCRFSQSLLHSNGITYLYWYLQKPGQSPQLLIYQMSNLASGVPDRFSGSGSGTDFTLKISRVEAEDVGVYYCAQNLELPWTFGGGTKLEIK
notes: Chimeric Fc: mouse IgG1 CH2 and CH3 domains and human CH1 domains
B2: Humanized 17B10 H1L3 (antibody, mouse IgG1, V domains shown)
VH: B1 VH
VL: DIVMTQSPDSLAVSLGERATINCRFSKSLLHSNGITYLYWYQQKPGQPPKLLIYQMSNLASGVPDRFSGSGSGTDFTLTISSLQAEDVAVYYCAQNLELPWTFGGGTKLEIK
B3: Humanized 17B10 H3L1 (antibody, mouse IgG1, V domains shown)
VH: QVQLVQSGPEVKKPGESLKISCKASGYAFSSYWLNWVRQMPGKGLEWMGRIYPGDGDTDYNGKFKGQVTISADKSSGTAYLQLSSLKASDTAVYFCVRGDGYWAMDYWGQGTLVTVSS
VL: B1 VL
B4: Humanized 17B10 H2L1 (antibody, mouse IgG1, V domains shown)
VH: QVQLVQSGAEVVKSGASVKVSCKASGYAFSSYWLNWVRQAPGQGLEWFGRIYPGDGDTDYNGKFKGRVTLIRDTSTSTVYMELTSLTSEDTAVYYCVRGDGYWAMDYWGQGTLVTVSS
VL: B1 VL
B5: Humanized 17B10 H1L2 (antibody, mouse IgG1, V domains shown)
VH: B1 VH
VL: B1 VL with S7T, Q55T
B6: Humanized 17B10 H3L2 (antibody, mouse IgG1, V domains shown)
VH: B3 VH
VL: B1 VL with S7T, Q55T
B7: Humanized 17B10 H2L3 (antibody, mouse IgG1, V domains shown)
VH: B4 VH
VL: B2 VL
B8: 12H4 (antibody, V domains shown)
VH: EVQLQQSGPELVKPGASVKVSCKASGYTFTDYYIHWVKQRPGQGLEWIGEIYPGSDDAYYNEKFKGKATLTADKSSSTAYMQLSSLTSEDSAVYFCTRETTATAYWGQGTLVTVSA
VL: QIVLTQSPAIMSASPGEKVTITCSASSSVSLIYWFQQKPGTSPKLWIYSTSNLASGVPARFSGSGSGTSYSLTISRMEAEDAATYYCQQRSGYPPTFGGGTKLEIK
notes: Mouse hybridoma monoclonal antibody
B9: 19B5 (antibody, V domains shown)
VH: DVNLVESGGGLVKLGGSLKLSCAASGFTFSNYYMSWVRQSPEKRLEWVATISNNGDSTYYLDTVKGRFTISRDSAENTLYLQMSSLISEDTAVYYCTRVGTGFTYWGQGTLVTVSA
VL: DIVLTQSPATLSVTPGDSVSLSCRASQSINNYLHWYQQRSHESPRLLIKFASQSISDIPSRFSGSGSGTDFTLSINSIETEDFGMYFCQQSNSWPLTFGAGTKLELK
notes: as for B8
B10: 16B6 (antibody, V domains shown)
VH: QVQLQQSGPELVKPGASVKISCKASGYAFSRSWMNWVKQRPGKGLEWIGWIYPGDGDTNYNGKFKGKATLTADKSSSTAYMQLSSLTSEDSAAYFCARSATLPYWYFDVWGAGTTVTVSS
VL: DIKMTQSPSSMYASLGERVTITCKASQDIKSYLSWYQQKPWKSPKTLIYYATNLADGVPSRFSGSGSGQDYSLTISSLGSDDTATYYCLQHVESPWTFGGGTKLEIK
notes: as for B8
B11: 5H9 (antibody, IgG2a, V domains shown)
VH: QVQLQQSGPDLVKPGASVKISCKASGYAFSTYWMNWVKQRPGKGLEWIGRIFPGDGDANYNGKFKGKATLTADKSSSTAYMQLSSLTSEDSAVYFCTRTGAAYDFDPFPYWGQGTLVTVSA
VL: DIVMTQAAFSNPVTLGTSASISCSSSKSLLHSNGVTYLYWYLQRPGQSPQLLIYRMSNLASGVPDRFSGSGSGTDFTLRISRVEAEDVGIYYCAQMLERPFTFGSGTKLEIK
notes: also called 5H9 mIgG2a
B12: 17A7 (antibody, V domains shown)
VH: B11 VH with D10E, A24G, A58T, N59D, N61D, S77N, T97A, D104E
VL: B11 VL with S26T, N33S, V35I, I90V
notes: as for B8
B13: 20C7 (antibody, V domains shown)
VH: EVQLQQSGPELVNPGASVKMSCKASGYTFTAYVMHWVKQKPGQGLEWIGYIFPYNDGTEYNEKFKGKATLTSDKSSSTAYMELSSLTSEDSAVYYCARRTDGNPYTMDYWGQGTSVTVSS
VL: DIVMTQSHKFMSTSVGDRVSITCKASQDVSTAVAWYQQKPGQSPKLLIHSASYRYTGVPDRFTGRGSGTDFTFTISSVQAEDLAVYYCQQHYSTPFTFGSGTKLEIK
notes: as for B8
B14: 17E6 (antibody, V domains shown)
VH: B13 VH with N13K, A31S, M34I, F52N, N55S, G57Y, E59Q, Y95S, T100A, T106A
VL: B13 VL with I21T, A34V, H49Y, R65S, S76T
notes: as for B8
B15: 19E12 (antibody, V domains shown)
VH: QVQLQQSGAELVRPGASVKLSCKASGYTFTDYEMHWVRQTPVHGLEWIGGIDPETGGTAYNQKFKGKATLTADKSSSTAYMELRSLTSEDSAVYYCTRGAWFAYWGQGTLVTVSA
VL: QAVVTQESALTTSPGETVTLTCRSSTGAVTTSNSANWVQEKPDHLFTGLIGGTNNRAPGVPARFSGSLIGDKAALTITGAQTEDEAIYFCALWYNNHFVFGGGTKLTVL
notes: as for B8
B16: 16G9 (antibody, V domains shown)
VH: EVQLQQSGPELVKPGASVKMSCKASGYTFTDYYMNWVKQSHGKSLEWIGRVNPNNGGKTYNQKFKGKATLTVDKSLSTAYMQLNSLTSEDSAVYYCARWRLRPVDYGMDYWGQGTSVTVSS
VL: DIVLTQSPASLAVSLGQRATISCRASQSVSTSSYSYMHWYQQKPGQPPKLLIKYASNLESGVPARFSGSGSGTDFTLNIHPVEEEDTATYYCQHSWEIPFTFGSGTKLEIK
notes: as for B8

Each binder was assayed against T1, Human CD93 on the cell surface (human …) (assay: FACS, CHO cells overexpressing human CD93).

Binding result, binds:
B1
B2
B3
B4
B5
B6
B7

These binders were tested against T1, Human CD93 on the cell surface (human …) (assay: summary table, column 'Binding' (assay not given)).

Binding result, binds:
B8
B9
B10
B11
B12
B13
B14
B15
B16

The binders below were run against T2, Human CD93 recombinant protein (Sino …) (assay: Octet epitope binning on biotinylated human CD93, antibody 10 µg/ml).
Description: Anti-CD93 antibody epitope bins were determined using Octet QKe (Fortebio). Human CD93 recombinant protein (Sino Biological Inc, Catalog #12589-H08H) were biotinylated using EZ-LINK NHS-PEG4 biotin (Thermo Fisher Scientific). Streptavidin biosensors tips (Fortebio) were used to capture biotinylated human CD93 protein (300 seconds in 5 μg/ml). The baseline was stabilized for 60 seconds in 1× kinetics buffer (Fortebio) before primary anti-CD93 antibodies (10 μg/ml) were allowed to associate for 300 seconds with captured protein. A panel of secondary anti-CD93 antibodies (10 μg/ml) were then allowed to associate with the antigen and primary antibody complex for additional 300 seconds. Signals were recorded for each binding event and data analysis was performed on ForteBio Data Analysis HT 11.1 software.

Binding result, binds:
B10
B11
B15
B16
